The series has as its system Escherichia coli TOP10. In words: shrunken log2 fold change of peptide-encoding DNA abundance (4.5 h post-induction vs induction); higher = less antimicrobial activity (less host growth inhibition). Particulars: time post-induction: 4.5 h; library: site-saturation at positions 5, 18, 19, 20.
Turning to RRIRYRPPRLPRPRPRPQKLPRP, the “shrunken log2 fold change” value is -0.418. The same measure for RRIRGRPPRLPRPRPRPHAIPRP: 0.46; for RRIRERPPRLPRPRPRPQIDPRP: -0.046. The same measure for RRIRYRPPRLPRPRPRPFKRPRP: -0.294; for RRIRFRPPRLPRPRPRPCANPRP: 0.133.

Consider RRIRRRPPRLPRPRPRPFSAPRP, for which the “shrunken log2 fold change” value is -0.274. RRIRSRPPRLPRPRPRPMDRPRP: the “shrunken log2 fold change” value was -0.155. The value for RRIRRRPPRLPRPRPRPVVSPRP was 0.132; that for RRIRMRPPRLPRPRPRPYHLPRP was 0.00229; that for RRIRPRPPRLPRPRPRPMMPPRP was -0.141. As to RRIRWRPPRLPRPRPRPKRRPRP, the “shrunken log2 fold change” value turned out to be 0.0884. Consider RRIRNRPPRLPRPRPRPWGIPRP, for which the “shrunken log2 fold change” value is -0.199.

Consider RRIRPRPPRLPRPRPRPHDAPRP, for which the “shrunken log2 fold change” value amounted to 0.0201. For the sequence RRIRQRPPRLPRPRPRPCFGPRP, the “shrunken log2 fold change” value amounted to 0.0162.

For RRIRKRPPRLPRPRPRPGRLPRP, the “shrunken log2 fold change” value was 0.299. The value for RRIRARPPRLPRPRPRPMYKPRP was -0.189; that for RRIRGRPPRLPRPRPRPCTIPRP was 0.166. Regarding RRIRGRPPRLPRPRPRPTAYPRP, the “shrunken log2 fold change” value was 0.656. Consider RRIRQRPPRLPRPRPRPSCEPRP, for which the “shrunken log2 fold change” value was 0.0555.

RRIRYRPPRLPRPRPRPPAMPRP: the “shrunken log2 fold change” value is -0.35. The same measure for RRIRERPPRLPRPRPRPEGDPRP: 0.0441. The value for RRIRVRPPRLPRPRPRPFSMPRP was -0.0688. On to RRIRMRPPRLPRPRPRPPYRPRP, for which the “shrunken log2 fold change” value came out at 0.00408. The same measure for RRIRSRPPRLPRPRPRPKVLPRP: 0.248. The same measure for RRIRRRPPRLPRPRPRPQPNPRP: 0.355; for RRIRFRPPRLPRPRPRPGAHPRP: -0.126; for RRIRVRPPRLPRPRPRPQDVPRP: -0.033. The same measure for RRIRARPPRLPRPRPRPMCEPRP: 0.797; for RRIRPRPPRLPRPRPRPTVAPRP: 0.277.

As for RRIRWRPPRLPRPRPRPQYKPRP, the “shrunken log2 fold change” value is -0.696. On to RRIRFRPPRLPRPRPRPVYCPRP, for which the “shrunken log2 fold change” value is -0.408.

In the case of RRIRRRPPRLPRPRPRPDTRPRP, the “shrunken log2 fold change” value was -0.0459. The value for RRIRYRPPRLPRPRPRPSKVPRP was -1.04; that for RRIRCRPPRLPRPRPRPDVVPRP was -0.00174. For the sequence RRIRPRPPRLPRPRPRPYQAPRP, the “shrunken log2 fold change” value is -0.0753. Take RRIRGRPPRLPRPRPRPKTLPRP: the “shrunken log2 fold change” value amounted to 0.872. Turning to RRIRLRPPRLPRPRPRPSKIPRP, the “shrunken log2 fold change” value was -0.349.

On to RRIRPRPPRLPRPRPRPHSKPRP, for which the “shrunken log2 fold change” value is -0.14. As to RRIRPRPPRLPRPRPRPIECPRP, the “shrunken log2 fold change” value was -0.206.

On to RRIRTRPPRLPRPRPRPYIKPRP, for which the “shrunken log2 fold change” value was -1.22. With RRIRWRPPRLPRPRPRPIQPPRP, the “shrunken log2 fold change” value came out at 0.0851. As for RRIRKRPPRLPRPRPRPFCLPRP, the “shrunken log2 fold change” value was -0.0107. On to RRIRPRPPRLPRPRPRPQEIPRP, for which the “shrunken log2 fold change” value amounted to 0.017.

As for RRIRIRPPRLPRPRPRPSHCPRP, the “shrunken log2 fold change” value was -0.505. The same measure for RRIRNRPPRLPRPRPRPHFTPRP: -0.0512; for RRIRVRPPRLPRPRPRPFTPPRP: -0.412; for RRIRPRPPRLPRPRPRPRTNPRP: -0.0218.

In the case of RRIRDRPPRLPRPRPRPNCGPRP, the “shrunken log2 fold change” value was 0.387. The value for RRIRRRPPRLPRPRPRPYTHPRP was -0.505; that for RRIRDRPPRLPRPRPRPHNEPRP was -0.701. RRIRYRPPRLPRPRPRPMVQPRP: the “shrunken log2 fold change” value was 0.0303. For RRIRVRPPRLPRPRPRPPSEPRP, the “shrunken log2 fold change” value is -0.124.

Regarding RRIRGRPPRLPRPRPRPAVHPRP, the “shrunken log2 fold change” value was 0.536. The value for RRIRPRPPRLPRPRPRPRNAPRP was 0.39; that for RRIRLRPPRLPRPRPRPKYSPRP was -0.622; that for RRIRFRPPRLPRPRPRPSQWPRP was -0.171. The same measure for RRIRDRPPRLPRPRPRPAWQPRP: 0.861. As to RRIRPRPPRLPRPRPRPRMVPRP, the “shrunken log2 fold change” value was -0.263. With RRIRHRPPRLPRPRPRPQIFPRP, the “shrunken log2 fold change” value was -0.135. The value for RRIRGRPPRLPRPRPRPPFPPRP was 1.17. The value for RRIRWRPPRLPRPRPRPTIMPRP was -0.0533. In the case of RRIRQRPPRLPRPRPRPEPPPRP, the “shrunken log2 fold change” value was 0.488. For RRIRKRPPRLPRPRPRPWPKPRP, the “shrunken log2 fold change” value was determined as 0.274. The same measure for RRIRPRPPRLPRPRPRPMCQPRP: 0.27; for RRIRLRPPRLPRPRPRPTAWPRP: 0.222. The same measure for RRIRERPPRLPRPRPRPTNWPRP: 0.0202; for RRIRIRPPRLPRPRPRPGLDPRP: 0.0575. For RRIRRRPPRLPRPRPRPHSMPRP, the “shrunken log2 fold change” value was -0.118. The value for RRIRSRPPRLPRPRPRPFEIPRP was 0.0385; that for RRIRLRPPRLPRPRPRPYPPPRP was -0.866; that for RRIRNRPPRLPRPRPRPTNMPRP was -0.753.

As for RRIRERPPRLPRPRPRPRMIPRP, the “shrunken log2 fold change” value was -0.0503. RRIRERPPRLPRPRPRPHCIPRP: the “shrunken log2 fold change” value is -0.000243.

In the case of RRIRDRPPRLPRPRPRPLQPPRP, the “shrunken log2 fold change” value is 0.467. With RRIRIRPPRLPRPRPRPNKCPRP, the “shrunken log2 fold change” value was -0.438. In the case of RRIRLRPPRLPRPRPRPVTYPRP, the “shrunken log2 fold change” value is -0.0255. The value for RRIRDRPPRLPRPRPRPRQTPRP was 0.612; that for RRIRVRPPRLPRPRPRPMWAPRP was 0.0354. For the sequence RRIRTRPPRLPRPRPRPEACPRP, the “shrunken log2 fold change” value was -0.1. As for RRIRHRPPRLPRPRPRPLKYPRP, the “shrunken log2 fold change” value was -0.345.

Turning to RRIRSRPPRLPRPRPRPYYVPRP, the “shrunken log2 fold change” value was -0.274. In the case of RRIRVRPPRLPRPRPRPKGRPRP, the “shrunken log2 fold change” value turned out to be 0.211. The value for RRIRPRPPRLPRPRPRPHWAPRP was -0.0709.

With RRIRLRPPRLPRPRPRPYEMPRP, the “shrunken log2 fold change” value was -0.468. In the case of RRIRKRPPRLPRPRPRPCNGPRP, the “shrunken log2 fold change” value was -0.0184. The value for RRIRCRPPRLPRPRPRPIGCPRP was -0.00449. The same measure for RRIRVRPPRLPRPRPRPQLIPRP: -0.334; for RRIRARPPRLPRPRPRPGYEPRP: 0.246; for RRIRDRPPRLPRPRPRPKSTPRP: -0.175. The same measure for RRIRWRPPRLPRPRPRPVNFPRP: 0.0606; for RRIRLRPPRLPRPRPRPYIPPRP: -0.669.

Values taken from the supplement of paper PMC9112550, “Optimization of the antimicrobial peptide Bac7 by deep mutational scanning” (BMC Biology, 2022).
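Also: peptides expressed intracellularly from a pBAD plasmid library in pooled LB shake-flask culture, induced with 0.3% L-arabinose, DNA abundance read by NGS, three biological replicates, DESeq2 with apeglm shrinkage.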
